This note sets out measurements from PMC10491200 (bioRxiv, 2023).

The series concerns the molecule itself. The experiment in a line: cryo-EM structure.

B1: human mGlu5 (21-872), metabotropic glutamate receptor subtype 5, in MSP2N2 lipid nanodisc (receptor)
chain: QSSERRVVAHMPGDIIIGALFSVHHQPTVDKVHERKCGAVREQYGIQRVEAMLHTLERINSDPTLLPNITLGCEIRDSCWHSAVALEQSIEFIRDSLISSEEEEGLVRCVDGSSSSFRSKKPIVGVIGPGSSSVAIQVQNLLQLFNIPQIAYSATSMDLSDKTLFKYFMRVVPSDAQQARAMVDIVKRYNWTYVSAVHTEGNYGESGMEAFKDMSAKEGICIAHSYKIYSNAGEQSFDKLLKKLTSHLPKARVVACFCEGMTVRGLLMAMRRLGLAGEFLLLGSDGWADRYDVTDGYQREAVGGITIKLQSPDVKWFDDYYLKLRPETNHRNPWFQEFWQHRFQCRLEGFPQENSKYNKTCNSSLTLKTHHVQDSKMGFVINAIYSMAYGLHNMQMSLCPGYAGLCDAMKPIDGRKLLESLMKTNFTGVSGDTILFDENGDSPGRYEIMNFKEMGKDYFDYINVGSWDNGELKMDDDEVWSKKSNIIRSVCSEPCEKGQIKVIRKGEVSCCWTCTPCKENEYVFDEYTCKACQLGSWPTDDLTGCDLIPVQYLRWGDPEPIAAVVFACLGLLATLFVTVVFIIYRDTPVVKSSSRELCYIILAGICLGYLCTFCLIAKPKQIYCYLQRIGIGLSPAMSYSALVTKTNRIARILAGSKKKICTKKPRFMSACAQLVIAFILICIQLGIIVALFIMEPPDIMHDYPSIREVYLICNTTNLGVVTPLGYNGLLILSCTFYAFKTRNVPANFNEAKYIAFTMYTTCIIWLAFVPIYFGSNYKIITMCFSVSLSATVALGCMFVPKVYIILAKPERNVRSAFTTSTVVRMHVGDGKSSSAASRSSSLVNLWKRRGSS
Turning to B1, the binding result is “binds”.
